According to patent US20120214208:

What was measured:
[1] = tested on: p50-ligase (NF-kappaB p50 40-366 fused to N-terminus of T4 DNA ligase) (Homo sapiens / phage T4 fusion); conditions: transformation assay; no-ligase control 4
[2] = tested on: ligase-PprA (phage T4 / Deinococcus radiodurans fusion); conditions: transformation assay; no-ligase control 4
T4 DNA ligase (phage T4) = conditions: transformation assay after 16 C 60 min; no-ligase control 4

Substance: pCA24N-ompC HindIII/SpeI vector (5032 bp) and insert (1311 bp)
- activity [1]: 17 colonies
- activity [2]: 53 colonies
- activity (T4 DNA ligase (phage T4)): 47 colonies
